Read-outs that look alike come from different tables or passages of the source.

The conditions of data set [1]: human, in vivo; cited from earlier work.
Data set [2] deals with HUVEC. Description: Caspase 3/7 assay, HUVEC. It counts as cell-based, human. The conditions noted are these: 24 hours; 30 μM KD1TM, 30 μM BPTI, 60 mM EACA, 30 mM TXA. On the procedure: The influence of antifibrinolytic agents on apoptosis in cells was detected using the Caspase-Glo 3/7 Assay kit (Promega). Caspase 3 and 7 are activated in cells that undergo apoptosis. The assay provides a luminogenic substrate for caspase 3 and 7. Enzymatic activity leads to luminescence, which is proportional to the amount of caspase activity present. Cells were seeded in 96-well plates and treated with antifibrinolytic agents or phosphate buffer (solvent control). Taxol was included as positive control. After 24 hours of treatment, caspase reagent was added to each well, mixed and incubated for 1 hour at room temperature. Luminescence was measured using the FLUOstar Omega Microplate Reader (BMG Labtech).

The test system of data set [3] is primary human dermal skin fibroblasts. The conditions noted are these: 24 hours; 30 μM KD1TM, 30 μM BPTI, 60 mM EACA, 30 mM TXA. An excerpt: (§1) Primary human pooled umbilical vein endothelial cells (HUVEC) were obtained from ATCC. The cells were maintained in Vascular Cell Basal Medium (ATCC), supplemented with the Endothelial Cell Growth Kit-BBE (ATCC) and Penicillin-Streptomycin-Amphotericin B (ATCC). Primary human dermal skin fibroblasts were obtained from LONZA and maintained in Fibroblast Basal Medium (FBMTM, LONZA), supplemented with a cocktail of growth factors, fetal bovine serum and antibiotics (FGMTM-2 SingleQuots™, LONZA). All cells were maintained in a humidified 5% C02 atmosphere at 37° C. and were passaged once they reached 80% confluence. All experiments were performed with cells in the logarithmic growth phase.
(§2) For toxicity studies, cells were seeded into 96-well or 24-well cell culture plates at 3,500 cells/cm2 and were used for experiments once they reached 80% confluence.
(§3) Cell toxicity and cell death was evaluated with the CellTox™ Green Cytotoxicity Assay (Promega). This assay measures changes in membrane integrity that occur as a result of cell death. The dye used in the system is excluded from viable cells but binds to DNA in compromised cells, which results in a fluorescent signal. We measured cell death in HUVEC and primary fibroblasts treated with antifibrinolytic agents at 4 concentrations (as indicated above) with triplicates per concentration in 24-well plates after 24 hours of exposure. Hoechst (Thermo Fisher Scientific) was used to stain all nuclei. Images of cells were captured using an inverted microscope (Nicon; Edipse T2000 TE). Green fluorescent cells (FITC filter) and Hoechst stained cells (DAPI filter) were counted using Image J software.

The subject of data set [4] is HUVEC. The conditions noted are these: 24 hours; 30 μM KD1TM, 30 μM BPTI, 60 mM EACA, 30 mM TXA.
Description: as §1, §2, §3

For data set [5] the following is noted: in vivo; cited from earlier work.
A further data set has as its target T1, FXa (Homo sapiens, UniProt P00742).
T1 construct: FXa, factor Xa
Description: Protease inhibition assay, factor Xa. The format is biochemical. The conditions noted are these: 1 nM FXa. As to the method:
FIG. 2. Data from Equilibrium inhibition constants (Ki) of KD1Y11T/R15KL17R-KT with plasmin, FXIa, kallikrein (KLK), FVIIa/sTF and FXa. Percent activity of 3 nM human plasmin remaining in the presence of various concentrations (0.05 to 19.2 nM) of KD1Y11T/R15KL17R-KT (●) or BPTI (◯). And percent activity of 1 nM human FXIa (▴), 1 nM human kallikrein (●), 20 nM human FVIIa/sTF (Δ) and 1 nM FXa (♦) remaining in the presence of various concentrations (1 μM to 30 μM) of KD1Y11T/R15KL17R-KT.
Ki values for each inhibitor were calculated using the tight binding equations.

Another data set has as its target T2, FVIIa/sTF (Homo sapiens, UniProt P08709).
T2 construct: human factor VIIa (FVIIa) was prepared as described previously (34)
Description: Protease inhibition assay, FVIIa/soluble tissue factor. The format is biochemical. The settings on record: 20 nM FVIIa/sTF; read-out: Ki for Factor VIIa/soluble tissue factor. As to the method: (§4) All reactions were carried out in TBS, pH 7.5 (50 mM Tris-HCL, pH 7.5, containing 100 mM NaCl), containing 0.1 mg bovine serum albumin/ml (TBS/BSA) and 2 mM Ca2+(TBS/BSA/Ca2+, pH 7.5). […] The inhibition constant, K* was determined using the nonlinear regression data analysis program Grafit.
(§5) Ki values were obtained by correcting for the effect of substrate according to Beith (38), using equation 2, where (S) is substrate concentration and KM is specific for each enzyme.

Data set [6] relates to primary human dermal skin fibroblasts. The experiment in a line: Resazurin reduction (alamarBlue) viability assay, skin fibroblasts. It counts as cell-based. On the procedure:
(§6) Resazurin reduction assay (Fisher Scientific) was used to evaluate the potential cytotoxicity of antifibrinolytic agents toward primary human endothelial cells and skin fibroblasts. Phosphate buffer that was used to dissolve the samples was included as negative control. The assay is based on reduction of the non-fluorescent dye resazurin, to the highly fluorescent resorufin by viable cells. […] Briefly, cells in 96-well cell culture plates were treated with different concentrations of antifibrinolytic compounds (as described above). After 24 hours resazurin reagent was added to each well and the plates were incubated at 37° C. for 4 hours. Fluorescence was measured by the FLUOstar Omega Microplate Reader (BMG Labtech) using an excitation wavelength of 544 nm and an emission wavelength of 590 nm. Each assay was done in duplicate, with three replicates each. The viability was evaluated based on comparison with untreated cells.

The test system of data set [7] is HUVEC. It counts as cell-based, human. As to the method: as §6
The target of the next data set is T3, human plasmin (Homo sapiens, UniProt P00747).
T3 construct: purchased Hematologic Technologies Inc (Essex Junction, VT)
T3 sequence (P00747 97-580 limits assumed): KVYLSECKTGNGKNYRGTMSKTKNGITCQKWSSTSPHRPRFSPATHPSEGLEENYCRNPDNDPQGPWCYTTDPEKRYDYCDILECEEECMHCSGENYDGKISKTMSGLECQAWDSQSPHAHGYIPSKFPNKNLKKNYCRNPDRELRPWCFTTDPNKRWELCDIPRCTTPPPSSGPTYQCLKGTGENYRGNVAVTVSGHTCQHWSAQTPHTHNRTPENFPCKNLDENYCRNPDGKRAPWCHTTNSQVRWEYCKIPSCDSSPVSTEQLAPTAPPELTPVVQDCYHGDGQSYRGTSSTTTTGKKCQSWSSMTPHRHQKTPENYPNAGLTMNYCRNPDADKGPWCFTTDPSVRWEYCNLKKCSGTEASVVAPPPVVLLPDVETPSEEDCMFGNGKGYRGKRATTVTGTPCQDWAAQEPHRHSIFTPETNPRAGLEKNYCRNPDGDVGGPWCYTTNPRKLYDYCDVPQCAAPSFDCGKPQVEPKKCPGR
T3 sequence (P00747 581-810 limits assumed): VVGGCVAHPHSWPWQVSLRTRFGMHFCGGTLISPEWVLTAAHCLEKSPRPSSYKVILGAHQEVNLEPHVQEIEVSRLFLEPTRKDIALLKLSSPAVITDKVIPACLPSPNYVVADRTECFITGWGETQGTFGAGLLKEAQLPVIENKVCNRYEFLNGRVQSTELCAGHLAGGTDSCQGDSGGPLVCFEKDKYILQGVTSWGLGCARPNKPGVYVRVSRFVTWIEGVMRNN
Description: Protease inhibition assay, plasmin (S-2251 amidolytic activity). It counts as biochemical. The settings on record: 3 nM plasmin; 1 hour at room temperature; tight-binding equation. As to the method:
as §4, §5
Reactions were carried out in TBS/BSA and 2 mM calcium. […] Synthetic substrate for plasmin was then added to a final concentration of 1 KM, and residual amidolytic activity was measured in a kinetic microplate reader (Molecular Devices).

T2 sequence (P08709 213-466 limits assumed): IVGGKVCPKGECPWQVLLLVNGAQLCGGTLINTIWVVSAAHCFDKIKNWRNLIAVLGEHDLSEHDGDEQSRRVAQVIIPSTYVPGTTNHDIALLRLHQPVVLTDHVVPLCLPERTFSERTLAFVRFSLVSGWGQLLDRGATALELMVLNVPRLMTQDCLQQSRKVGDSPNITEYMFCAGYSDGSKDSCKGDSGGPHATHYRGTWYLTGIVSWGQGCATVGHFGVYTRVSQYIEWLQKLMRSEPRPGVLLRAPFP
T2 sequence (P08709 61-212 limits assumed): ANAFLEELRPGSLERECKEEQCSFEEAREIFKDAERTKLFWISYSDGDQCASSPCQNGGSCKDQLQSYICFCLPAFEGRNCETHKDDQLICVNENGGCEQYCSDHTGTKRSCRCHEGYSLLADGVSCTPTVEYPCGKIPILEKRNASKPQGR
T2 sequence (P13726 33-251 partner limits assumed): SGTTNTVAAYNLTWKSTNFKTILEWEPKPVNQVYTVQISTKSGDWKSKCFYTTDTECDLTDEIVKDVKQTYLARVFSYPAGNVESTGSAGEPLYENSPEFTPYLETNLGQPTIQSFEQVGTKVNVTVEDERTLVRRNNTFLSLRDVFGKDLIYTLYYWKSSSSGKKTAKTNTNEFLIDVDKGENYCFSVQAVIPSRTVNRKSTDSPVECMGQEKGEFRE
T1 sequence (P00742 235-488 limits assumed): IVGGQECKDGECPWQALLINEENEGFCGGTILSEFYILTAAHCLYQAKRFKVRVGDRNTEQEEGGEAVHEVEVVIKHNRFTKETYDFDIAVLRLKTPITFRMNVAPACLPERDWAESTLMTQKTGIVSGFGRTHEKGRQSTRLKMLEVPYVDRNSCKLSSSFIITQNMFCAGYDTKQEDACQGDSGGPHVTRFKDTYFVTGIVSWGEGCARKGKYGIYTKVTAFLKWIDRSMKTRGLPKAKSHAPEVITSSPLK
T1 sequence (P00742 41-179 limits assumed): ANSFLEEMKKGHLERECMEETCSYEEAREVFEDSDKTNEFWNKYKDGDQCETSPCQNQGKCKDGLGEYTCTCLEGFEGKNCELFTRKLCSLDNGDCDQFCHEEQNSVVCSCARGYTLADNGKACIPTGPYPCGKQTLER

In general, half-life refers to the time in which the quantity being followed falls by half. Take aprotinin: the half-life is ~2 h in [1] and ~1.17 h in [5]. Moreover, in the data set with HUVEC [2], the “Apoptosis, caspase-3/7 activity, HUVEC (FIG. 6)” value is “did not induce apoptosis”. Also, in [3], the “Fibroblasts cytotoxicity, CellTox green (FIG. 8)” value is “did not induce toxicity”. Further, in the data set with HUVEC [4], the “HUVEC cytotoxicity, CellTox green (FIG. 7)” value is reported as “did not induce toxicity”. Also, the Ki on FXa was > 3000 nM; at FVIIa/sTF, > 3000 nM; at human plasmin, 0.5 ± 0.1 nM. Besides, the “Fibroblast cell viability (FIG. 5)” value in [6] is reported as “not significantly different from the untreated cells”. For the same substance, the “HUVEC viability (FIG. 4)” value in the data set on HUVEC [7] is listed as “not significantly different from the untreated cells”.

These data come from patent US20230331817A1 (The Regents of the University of California, priority 2020, published 2023).
